Reference: patent US6596261B1, “Method of administering a medicinal aerosol formulation” (Aeropharm Technology Incorporated, priority 2000, dated 2003)
Ends that are not written are not given here.

Assay: Pharmacokinetics of amylin in rabbits after intravenous versus intrapulmonary administration
Format: in vivo, New Zealand rabbits
Settings: for Vd: average of six; for Ke: elimination rate constant; for K12: rate constant central to peripheral compartment; for K21: rate constant peripheral to central compartment
Description: The table listed below discloses the average measured results
Referring to FIG. 2, the experimental results obtained were compared to the results calculated using formulae (I) through (VI). The calculated data is totally consistent with the experimental data of this EXAMPLE.

[1] = Intrapulmonary Administration, dose: 7.5 μg/kg
[2] = Intravenous Administration, dose: 5.0 μg/kg

## amylin (KCNTATCATQRLANFLVHSSNNFGAILSSTNVGSNTY; not fully specified (C-terminus, bridges); cysteine pairing not given here; UniProt P10997 34-70, looked up) [β-cell hypoglycemic medicament; natural, synthetic, semi-synthetic or recombinant amylin or amylin analogs]
[1]
  AUC (Area under the blood concentration time course curve): 16.9670 ng·min/mL
  F (Bioavalability), Percent of administered drug absorbed from the lung dose: 24.9%
  T1/2 (Half life of the drug in the body): 26.3819 min
  Vd: 63.0911 L
  Ke: 0.02627 min⁻¹
  K12: 0.03211 min⁻¹
  K21: 0.01774 min⁻¹
[2]
  AUC (Area under the blood concentration time course curve): 45.4016 ng·min/mL
  T1/2 (Half life of the drug in the body): 17.1771 min
  Vd: 9.5246 L
  Ke: 0.0403 min⁻¹
  K12: 0.0180 min⁻¹
  K21: 0.0075 min⁻¹
